Source: patent publication US20200199241A1 (Chugai, published 2020)
Blank lines part the entries; values can stand above or below the binder they belong to.

Legend:
Assay in all cases: SPR (Biacore);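 also: antibody variants captured on sensor chip, Fcγ receptor flowed over at 25 °C, bound receptor normalized to amount of captured antibody, expressed relative to reference antibody set as 100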
human FcγRIIa(R) = molecular target: T1, human FcγRIIa(R) (human, UniProt P12318 36-217)
T1 construct: also called FcgRIIaR; FcγRIIa type R
T1 chain: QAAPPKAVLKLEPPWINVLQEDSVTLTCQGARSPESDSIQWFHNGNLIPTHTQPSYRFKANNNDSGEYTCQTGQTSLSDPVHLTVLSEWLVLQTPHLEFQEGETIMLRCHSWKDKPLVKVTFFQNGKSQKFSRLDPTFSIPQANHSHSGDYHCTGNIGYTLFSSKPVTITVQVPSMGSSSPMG

human FcγRIIb = molecular target: T2, human FcγRIIb (human, UniProt P31994 43-217, limits assumed)
T2 construct: also called FcgRIIb
T2 sequence: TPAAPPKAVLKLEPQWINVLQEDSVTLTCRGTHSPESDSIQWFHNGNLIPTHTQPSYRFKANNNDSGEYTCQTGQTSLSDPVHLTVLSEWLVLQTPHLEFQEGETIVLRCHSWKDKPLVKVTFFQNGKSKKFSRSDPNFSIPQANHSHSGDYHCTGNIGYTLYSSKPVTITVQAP

human FcγRIIIa(F) = molecular target: T3, human FcγRIIIa(F) (human, UniProt P08637 17-208, limits assumed)
T3 construct: also called FcgRIIIaF; allotype F158

human FcγRIa = molecular target: T4, human FcγRIa (human, UniProt P12314 16-292, limits assumed)
T4 construct: also called FcgRIa; FcγRI (CD64)

human FcγRIIa(H) = molecular target: T5, human FcγRIIa(H) (human, UniProt P12318 36-217)
T5 construct: also called FcgRIIaH; FcγRIIa type H
T5 sequence: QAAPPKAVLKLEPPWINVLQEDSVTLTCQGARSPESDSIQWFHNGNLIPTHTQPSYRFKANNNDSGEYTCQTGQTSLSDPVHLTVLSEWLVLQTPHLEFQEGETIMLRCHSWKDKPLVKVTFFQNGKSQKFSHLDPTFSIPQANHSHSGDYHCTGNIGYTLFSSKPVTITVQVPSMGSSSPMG

T4 sequence (P12314 16-292 limits assumed): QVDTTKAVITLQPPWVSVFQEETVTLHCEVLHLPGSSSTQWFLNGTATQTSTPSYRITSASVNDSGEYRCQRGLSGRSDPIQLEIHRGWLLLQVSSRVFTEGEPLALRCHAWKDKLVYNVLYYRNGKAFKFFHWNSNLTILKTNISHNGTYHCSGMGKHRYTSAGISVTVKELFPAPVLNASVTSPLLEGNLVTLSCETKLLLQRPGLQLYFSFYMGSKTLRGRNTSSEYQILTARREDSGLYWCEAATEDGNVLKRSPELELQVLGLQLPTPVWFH
T3 sequence (P08637 other isoform, or with tags, fused parts or gaps limits assumed): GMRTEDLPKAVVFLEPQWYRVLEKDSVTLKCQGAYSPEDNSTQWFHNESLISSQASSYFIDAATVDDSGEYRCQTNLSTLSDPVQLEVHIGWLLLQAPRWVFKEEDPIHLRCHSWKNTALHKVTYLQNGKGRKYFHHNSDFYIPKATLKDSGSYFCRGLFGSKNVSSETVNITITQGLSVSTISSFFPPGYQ

B1: GpH7-B3 variant P238Q/GpL16-k0 (antibody, human IgG1)
heavy: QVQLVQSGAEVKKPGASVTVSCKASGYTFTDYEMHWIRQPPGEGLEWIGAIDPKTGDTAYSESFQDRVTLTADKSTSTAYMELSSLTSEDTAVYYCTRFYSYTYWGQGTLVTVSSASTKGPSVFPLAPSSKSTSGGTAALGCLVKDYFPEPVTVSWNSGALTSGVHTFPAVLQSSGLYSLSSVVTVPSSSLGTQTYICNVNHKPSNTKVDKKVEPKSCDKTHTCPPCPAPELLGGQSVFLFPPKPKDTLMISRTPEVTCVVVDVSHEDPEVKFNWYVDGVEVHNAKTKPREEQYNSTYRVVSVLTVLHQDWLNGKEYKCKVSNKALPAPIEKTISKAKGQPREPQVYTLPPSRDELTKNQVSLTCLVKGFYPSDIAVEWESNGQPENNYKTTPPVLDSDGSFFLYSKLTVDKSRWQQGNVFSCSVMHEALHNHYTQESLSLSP
light: DIVMTQSPLSLPVTPGEPASISCQASESLVHSNRNTYLHWYLQKPGQSPQLLIYKVSNRFSGVPDRFSGSGSGTDFTLKISRVEAEDVGVYYCSQNTHVPPTFGQGTKVEIE
notes: copies: 2 + 2
relative binding activity (human FcγRIIa(R)): 19 % of GpH7-B3/GpL16-k0
relative binding activity (human FcγRIIb): 43 % of GpH7-B3/GpL16-k0
relative binding activity (human FcγRIIIa(F)): -1 % of GpH7-B3/GpL16-k0
relative binding activity (human FcγRIa): 84 % of GpH7-B3/GpL16-k0
relative binding activity (human FcγRIIa(H)): 4 % of GpH7-B3/GpL16-k0

B2: GpH7-B3 variant P238A/GpL16-k0 (antibody, human IgG1)
heavy: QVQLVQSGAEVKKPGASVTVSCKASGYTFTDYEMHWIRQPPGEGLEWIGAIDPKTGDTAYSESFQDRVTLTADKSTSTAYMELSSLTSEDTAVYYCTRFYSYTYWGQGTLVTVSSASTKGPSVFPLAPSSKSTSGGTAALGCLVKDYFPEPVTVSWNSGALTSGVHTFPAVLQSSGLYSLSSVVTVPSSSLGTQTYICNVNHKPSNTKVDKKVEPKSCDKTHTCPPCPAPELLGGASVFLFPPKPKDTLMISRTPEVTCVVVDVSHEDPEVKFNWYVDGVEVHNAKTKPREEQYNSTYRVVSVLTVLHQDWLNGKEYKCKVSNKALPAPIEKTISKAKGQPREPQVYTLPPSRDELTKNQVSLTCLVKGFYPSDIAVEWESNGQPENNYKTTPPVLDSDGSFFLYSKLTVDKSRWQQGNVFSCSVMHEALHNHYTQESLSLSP
light: DIVMTQSPLSLPVTPGEPASISCQASESLVHSNRNTYLHWYLQKPGQSPQLLIYKVSNRFSGVPDRFSGSGSGTDFTLKISRVEAEDVGVYYCSQNTHVPPTFGQGTKVEIE
notes: copies: 2 + 2
relative binding activity (human FcγRIIa(R)): 38 % of GpH7-B3/GpL16-k0
relative binding activity (human FcγRIIb): 26 % of GpH7-B3/GpL16-k0
relative binding activity (human FcγRIIIa(F)): 5 % of GpH7-B3/GpL16-k0
relative binding activity (human FcγRIa): 95 % of GpH7-B3/GpL16-k0
relative binding activity (human FcγRIIa(H)): 15 % of GpH7-B3/GpL16-k0

B3: GpH7-B3 variant L235S/GpL16-k0 (antibody, human IgG1)
heavy: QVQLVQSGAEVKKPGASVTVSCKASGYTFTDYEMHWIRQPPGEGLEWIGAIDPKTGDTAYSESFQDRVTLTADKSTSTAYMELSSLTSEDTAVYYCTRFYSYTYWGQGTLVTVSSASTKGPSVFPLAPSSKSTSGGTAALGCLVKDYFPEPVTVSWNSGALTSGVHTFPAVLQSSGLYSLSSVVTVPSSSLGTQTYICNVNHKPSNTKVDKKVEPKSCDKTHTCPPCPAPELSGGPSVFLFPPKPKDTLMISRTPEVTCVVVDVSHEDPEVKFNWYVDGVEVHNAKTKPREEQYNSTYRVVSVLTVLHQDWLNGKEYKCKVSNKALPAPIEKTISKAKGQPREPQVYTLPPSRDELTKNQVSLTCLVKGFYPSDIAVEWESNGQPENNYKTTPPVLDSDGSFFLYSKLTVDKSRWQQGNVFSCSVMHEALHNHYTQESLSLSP
light: DIVMTQSPLSLPVTPGEPASISCQASESLVHSNRNTYLHWYLQKPGQSPQLLIYKVSNRFSGVPDRFSGSGSGTDFTLKISRVEAEDVGVYYCSQNTHVPPTFGQGTKVEIE
notes: copies: 2 + 2
relative binding activity (human FcγRIIa(R)): 29 % of GpH7-B3/GpL16-k0
relative binding activity (human FcγRIIb): 23 % of GpH7-B3/GpL16-k0
relative binding activity (human FcγRIIIa(F)): 36 % of GpH7-B3/GpL16-k0
relative binding activity (human FcγRIa): 11 % of GpH7-B3/GpL16-k0
relative binding activity (human FcγRIIa(H)): 39 % of GpH7-B3/GpL16-k0

B6: GpH7-B3 variant P238K/GpL16-k0 (antibody, human IgG1)
heavy: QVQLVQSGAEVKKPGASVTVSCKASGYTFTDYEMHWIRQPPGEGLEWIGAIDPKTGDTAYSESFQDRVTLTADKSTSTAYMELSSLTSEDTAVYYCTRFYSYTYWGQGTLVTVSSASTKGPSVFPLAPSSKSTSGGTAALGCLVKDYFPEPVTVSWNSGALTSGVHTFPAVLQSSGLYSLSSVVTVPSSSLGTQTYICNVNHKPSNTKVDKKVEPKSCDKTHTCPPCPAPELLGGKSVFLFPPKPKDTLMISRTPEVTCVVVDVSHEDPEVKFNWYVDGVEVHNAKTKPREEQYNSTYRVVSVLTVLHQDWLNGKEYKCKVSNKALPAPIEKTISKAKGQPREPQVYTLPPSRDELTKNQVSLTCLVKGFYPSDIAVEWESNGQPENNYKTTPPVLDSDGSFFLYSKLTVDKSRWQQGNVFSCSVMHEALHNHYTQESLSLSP
light: DIVMTQSPLSLPVTPGEPASISCQASESLVHSNRNTYLHWYLQKPGQSPQLLIYKVSNRFSGVPDRFSGSGSGTDFTLKISRVEAEDVGVYYCSQNTHVPPTFGQGTKVEIE
notes: copies: 2 + 2
relative binding activity (human FcγRIIa(R)): -2 % of GpH7-B3/GpL16-k0
relative binding activity (human FcγRIIb): -2 % of GpH7-B3/GpL16-k0
relative binding activity (human FcγRIIIa(F)): -1 % of GpH7-B3/GpL16-k0
relative binding activity (human FcγRIa): 8 % of GpH7-B3/GpL16-k0
relative binding activity (human FcγRIIa(H)): -1 % of GpH7-B3/GpL16-k0

B7: GpH7-B3 variant L235T/GpL16-k0 (antibody, human IgG1)
heavy: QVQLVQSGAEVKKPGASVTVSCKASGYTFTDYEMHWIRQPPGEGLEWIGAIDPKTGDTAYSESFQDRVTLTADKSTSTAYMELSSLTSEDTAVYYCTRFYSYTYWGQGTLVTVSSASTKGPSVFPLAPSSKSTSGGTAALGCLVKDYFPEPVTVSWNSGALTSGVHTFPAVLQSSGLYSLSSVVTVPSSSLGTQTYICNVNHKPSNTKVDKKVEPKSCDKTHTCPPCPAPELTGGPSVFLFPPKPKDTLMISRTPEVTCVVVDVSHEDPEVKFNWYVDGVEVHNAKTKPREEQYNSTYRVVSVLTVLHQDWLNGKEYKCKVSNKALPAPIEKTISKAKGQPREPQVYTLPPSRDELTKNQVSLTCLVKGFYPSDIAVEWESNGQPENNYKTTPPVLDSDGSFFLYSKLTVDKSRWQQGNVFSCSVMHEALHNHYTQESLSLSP
light: DIVMTQSPLSLPVTPGEPASISCQASESLVHSNRNTYLHWYLQKPGQSPQLLIYKVSNRFSGVPDRFSGSGSGTDFTLKISRVEAEDVGVYYCSQNTHVPPTFGQGTKVEIE
notes: copies: 2 + 2
relative binding activity (human FcγRIIa(R)): 28 % of GpH7-B3/GpL16-k0
relative binding activity (human FcγRIIb): 26 % of GpH7-B3/GpL16-k0
relative binding activity (human FcγRIIIa(F)): 48 % of GpH7-B3/GpL16-k0
relative binding activity (human FcγRIa): 8 % of GpH7-B3/GpL16-k0
relative binding activity (human FcγRIIa(H)): 47 % of GpH7-B3/GpL16-k0

B11: GpH7-B3 variant P238R/GpL16-k0 (antibody, human IgG1)
heavy: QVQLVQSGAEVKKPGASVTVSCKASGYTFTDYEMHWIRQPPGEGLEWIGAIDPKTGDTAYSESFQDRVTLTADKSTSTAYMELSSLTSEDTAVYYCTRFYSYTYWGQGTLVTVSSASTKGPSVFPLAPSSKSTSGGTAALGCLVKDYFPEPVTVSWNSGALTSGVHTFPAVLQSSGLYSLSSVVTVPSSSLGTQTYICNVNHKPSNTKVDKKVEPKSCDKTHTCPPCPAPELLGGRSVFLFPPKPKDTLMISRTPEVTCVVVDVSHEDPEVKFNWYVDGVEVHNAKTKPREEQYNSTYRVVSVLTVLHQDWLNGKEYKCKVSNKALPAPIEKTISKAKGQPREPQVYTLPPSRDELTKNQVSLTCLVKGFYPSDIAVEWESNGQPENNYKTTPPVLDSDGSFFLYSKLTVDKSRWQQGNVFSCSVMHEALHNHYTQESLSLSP
light: DIVMTQSPLSLPVTPGEPASISCQASESLVHSNRNTYLHWYLQKPGQSPQLLIYKVSNRFSGVPDRFSGSGSGTDFTLKISRVEAEDVGVYYCSQNTHVPPTFGQGTKVEIE
notes: copies: 2 + 2
relative binding activity (human FcγRIIa(R)): -1 % of GpH7-B3/GpL16-k0
relative binding activity (human FcγRIIb): -2 % of GpH7-B3/GpL16-k0
relative binding activity (human FcγRIIIa(F)): -1 % of GpH7-B3/GpL16-k0
relative binding activity (human FcγRIa): 1 % of GpH7-B3/GpL16-k0
relative binding activity (human FcγRIIa(H)): -1 % of GpH7-B3/GpL16-k0

Further lines, results first:

relative binding activity (human FcγRIIa(R)): 38 % of GpH7-B3/GpL16-k0
relative binding activity (human FcγRIIb): 24 % of GpH7-B3/GpL16-k0
relative binding activity (human FcγRIIIa(F)): 6 % of GpH7-B3/GpL16-k0
relative binding activity (human FcγRIa): 64 % of GpH7-B3/GpL16-k0
relative binding activity (human FcγRIIa(H)): 19 % of GpH7-B3/GpL16-k0
B4: GpH7-B3 variant S239H/GpL16-k0 (antibody, human IgG1)
heavy: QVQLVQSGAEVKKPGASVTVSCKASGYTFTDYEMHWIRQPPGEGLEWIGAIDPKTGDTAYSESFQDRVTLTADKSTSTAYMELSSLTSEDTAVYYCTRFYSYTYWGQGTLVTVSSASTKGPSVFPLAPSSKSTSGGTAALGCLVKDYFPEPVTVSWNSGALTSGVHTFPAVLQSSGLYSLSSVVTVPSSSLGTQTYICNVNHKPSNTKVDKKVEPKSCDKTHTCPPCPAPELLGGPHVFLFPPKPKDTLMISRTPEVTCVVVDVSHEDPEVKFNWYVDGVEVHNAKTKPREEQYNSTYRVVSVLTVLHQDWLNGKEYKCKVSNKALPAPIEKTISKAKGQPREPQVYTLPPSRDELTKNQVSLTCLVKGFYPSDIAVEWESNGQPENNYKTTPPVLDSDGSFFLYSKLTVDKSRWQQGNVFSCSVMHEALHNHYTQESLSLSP
light: DIVMTQSPLSLPVTPGEPASISCQASESLVHSNRNTYLHWYLQKPGQSPQLLIYKVSNRFSGVPDRFSGSGSGTDFTLKISRVEAEDVGVYYCSQNTHVPPTFGQGTKVEIE
notes: copies: 2 + 2

relative binding activity (human FcγRIIa(R)): 57 % of GpH7-B3/GpL16-k0
relative binding activity (human FcγRIIb): 68 % of GpH7-B3/GpL16-k0
relative binding activity (human FcγRIIIa(F)): 29 % of GpH7-B3/GpL16-k0
relative binding activity (human FcγRIa): 96 % of GpH7-B3/GpL16-k0
relative binding activity (human FcγRIIa(H)): 58 % of GpH7-B3/GpL16-k0
B5: GpH7-B3 variant S239Q/GpL16-k0 (antibody, human IgG1)
heavy: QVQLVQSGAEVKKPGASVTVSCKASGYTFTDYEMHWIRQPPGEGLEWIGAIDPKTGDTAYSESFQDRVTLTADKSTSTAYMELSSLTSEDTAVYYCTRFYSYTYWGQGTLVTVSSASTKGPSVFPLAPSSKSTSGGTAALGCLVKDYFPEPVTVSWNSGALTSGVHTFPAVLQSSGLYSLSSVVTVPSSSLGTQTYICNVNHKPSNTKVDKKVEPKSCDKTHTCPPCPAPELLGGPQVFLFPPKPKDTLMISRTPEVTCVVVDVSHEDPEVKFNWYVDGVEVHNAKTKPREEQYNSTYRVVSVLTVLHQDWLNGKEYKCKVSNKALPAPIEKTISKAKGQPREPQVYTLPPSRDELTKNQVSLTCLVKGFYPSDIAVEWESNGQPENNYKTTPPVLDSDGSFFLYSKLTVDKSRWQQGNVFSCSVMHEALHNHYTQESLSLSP
light: DIVMTQSPLSLPVTPGEPASISCQASESLVHSNRNTYLHWYLQKPGQSPQLLIYKVSNRFSGVPDRFSGSGSGTDFTLKISRVEAEDVGVYYCSQNTHVPPTFGQGTKVEIE
notes: copies: 2 + 2

relative binding activity (human FcγRIIa(R)): 4 % of GpH7-B3/GpL16-k0
relative binding activity (human FcγRIIb): 1 % of GpH7-B3/GpL16-k0
relative binding activity (human FcγRIIIa(F)): 0 % of GpH7-B3/GpL16-k0
relative binding activity (human FcγRIa): 6 % of GpH7-B3/GpL16-k0
relative binding activity (human FcγRIIa(H)): 4 % of GpH7-B3/GpL16-k0
B8: GpH7-B3 variant S239K/GpL16-k0 (antibody, human IgG1)
heavy: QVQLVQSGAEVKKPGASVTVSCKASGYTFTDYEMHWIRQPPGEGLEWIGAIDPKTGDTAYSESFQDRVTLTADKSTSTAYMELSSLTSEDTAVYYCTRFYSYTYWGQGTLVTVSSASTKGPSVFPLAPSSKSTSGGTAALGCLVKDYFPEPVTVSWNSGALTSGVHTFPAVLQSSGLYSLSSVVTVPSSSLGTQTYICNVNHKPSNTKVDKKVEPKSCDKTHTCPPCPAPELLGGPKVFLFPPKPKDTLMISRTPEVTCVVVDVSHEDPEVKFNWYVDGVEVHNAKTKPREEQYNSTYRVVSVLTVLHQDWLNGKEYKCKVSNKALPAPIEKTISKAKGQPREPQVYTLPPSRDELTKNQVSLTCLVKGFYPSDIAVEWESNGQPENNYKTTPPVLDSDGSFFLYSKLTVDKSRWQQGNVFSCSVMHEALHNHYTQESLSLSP
light: DIVMTQSPLSLPVTPGEPASISCQASESLVHSNRNTYLHWYLQKPGQSPQLLIYKVSNRFSGVPDRFSGSGSGTDFTLKISRVEAEDVGVYYCSQNTHVPPTFGQGTKVEIE
notes: copies: 2 + 2

relative binding activity (human FcγRIIa(R)): 19 % of GpH7-B3/GpL16-k0
relative binding activity (human FcγRIIb): 8 % of GpH7-B3/GpL16-k0
relative binding activity (human FcγRIIIa(F)): 0 % of GpH7-B3/GpL16-k0
relative binding activity (human FcγRIa): 67 % of GpH7-B3/GpL16-k0
relative binding activity (human FcγRIIa(H)): 6 % of GpH7-B3/GpL16-k0
B9: GpH7-B3 variant P238T/GpL16-k0 (antibody, human IgG1)
heavy: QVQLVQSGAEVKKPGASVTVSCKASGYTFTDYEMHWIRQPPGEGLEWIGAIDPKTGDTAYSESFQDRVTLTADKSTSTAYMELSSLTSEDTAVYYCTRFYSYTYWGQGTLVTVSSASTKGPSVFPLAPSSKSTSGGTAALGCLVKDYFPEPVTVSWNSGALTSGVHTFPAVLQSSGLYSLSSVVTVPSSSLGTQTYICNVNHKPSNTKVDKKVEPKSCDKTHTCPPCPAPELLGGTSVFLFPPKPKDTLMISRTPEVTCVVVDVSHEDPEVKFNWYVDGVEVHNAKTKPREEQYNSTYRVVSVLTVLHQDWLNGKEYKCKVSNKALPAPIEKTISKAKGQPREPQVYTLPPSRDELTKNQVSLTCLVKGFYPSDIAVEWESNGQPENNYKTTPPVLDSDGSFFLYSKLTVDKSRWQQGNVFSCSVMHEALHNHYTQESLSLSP
light: DIVMTQSPLSLPVTPGEPASISCQASESLVHSNRNTYLHWYLQKPGQSPQLLIYKVSNRFSGVPDRFSGSGSGTDFTLKISRVEAEDVGVYYCSQNTHVPPTFGQGTKVEIE
notes: copies: 2 + 2

relative binding activity (human FcγRIIa(R)): 49 % of GpH7-B3/GpL16-k0
relative binding activity (human FcγRIIb): 61 % of GpH7-B3/GpL16-k0
relative binding activity (human FcγRIIIa(F)): -1 % of GpH7-B3/GpL16-k0
relative binding activity (human FcγRIa): 89 % of GpH7-B3/GpL16-k0
relative binding activity (human FcγRIIa(H)): 4 % of GpH7-B3/GpL16-k0
B10: GpH7-B3 variant S239P/GpL16-k0 (antibody, human IgG1)
heavy: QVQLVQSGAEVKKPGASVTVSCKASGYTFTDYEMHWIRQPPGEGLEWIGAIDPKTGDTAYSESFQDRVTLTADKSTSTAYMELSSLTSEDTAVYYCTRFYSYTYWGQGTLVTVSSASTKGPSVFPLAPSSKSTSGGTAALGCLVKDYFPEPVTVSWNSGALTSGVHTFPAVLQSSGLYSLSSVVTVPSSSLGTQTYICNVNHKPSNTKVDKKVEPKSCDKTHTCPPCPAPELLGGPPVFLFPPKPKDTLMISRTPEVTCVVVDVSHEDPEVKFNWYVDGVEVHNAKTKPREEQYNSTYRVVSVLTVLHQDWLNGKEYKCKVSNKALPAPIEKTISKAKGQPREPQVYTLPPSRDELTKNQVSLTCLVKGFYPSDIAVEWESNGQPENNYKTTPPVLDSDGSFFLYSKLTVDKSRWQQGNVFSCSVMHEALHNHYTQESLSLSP
light: DIVMTQSPLSLPVTPGEPASISCQASESLVHSNRNTYLHWYLQKPGQSPQLLIYKVSNRFSGVPDRFSGSGSGTDFTLKISRVEAEDVGVYYCSQNTHVPPTFGQGTKVEIE
notes: copies: 2 + 2
